Data set [1] deals with NRP1 expressed on COS cells (COS-NRP1). Kind of data set: cell-based or functional assay.
Data set [2] deals with the molecule itself. As to the kind of experiment: sucrose density gradient sedimentation of C6 cell lysates, anti-NRP1 western blot.

As to Sema3A (ligand), the collapsed COS-1 cells expressing NRP1 and Plexin-A1 in data set [1] was over 50%.

B1: NRP1 on rat C6 glioma cells (receptor, rat (Rat C6 glioma cells), UniProt Q9QWJ9 22-922, looked up)
chain: FRSDKCGGTIKIENPGYLTSPGYPHSYHPSEKCEWLIQAPEPYQRIMINFNPHFDLEDRDCKYDYVEVIDGENEGGRLWGKFCGKIAPSPVVSSGPFLFIKFVSDYETHGAGFSIRYEIFKRGPECSQNYTAPTGVIKSPGFPEKYPNSLECTYIIFAPKMSEIILEFESFDLEQDSNPPGGVFCRYDRLEIWDGFPEVGPHIGRYCGQKTPGRIRSSSGILSMVFYTDSAIAKEGFSANYSVLQSSISEDFKCMEALGMESGEIHSDQITASSQYGTNWSVERSRLNYPENGWTPGEDSYREWIQVDLGLLRFVTAVGTQGAISKETKKKYYVKTYRVDISSNGEDWITLKEGNKAIIFQGNTNPTDVVFGVFPKPLITRFVRIKPASWETGISMRFEVYGCKITDYPCSGMLGMVSGLISDSQITASNQGDRNWMPENIRLVTSRTGWALPPSPHPYINEWLQVDLGDEKIVRGVIIQGGKHRENKVFMRKFKIAYSNNGSDWKMIMDDSKRKAKSFEGNNNYDTPELRAFTPLSTRFIRIYPERATHSGLGLRMELLGCEVEVPTAGPTTPNGNPVDECDDDQANCHSGTGDDFQLTGGTTVLATEKPTIIDSTIQSEFPTYGFNCEFGWGSHKTFCHWEHDSHAQLRWRVLTSKTGPIQDHTGDGNFIYSQADENQKGKVARLVSPVVYSQSSAHCMTFWYHMSGSHVGTLRVKLHYQKPEEYDQLVWMVVGHQGDHWKEGRVLLHKSLKLYQVIFEGEIGKGNLGGIAVDDISINNHIPQEDCAKPTDLDKKNTEIKIDETGSTPGYEEGKGDKNISRKPGNVLKTLDPILITIIAMSALGVLLGAVCGVVLYCACWHNGMSERNLSALENYNFELVDGVKLKKDKLNPQSNYSEA
notes: whole, on cells; It is not tied expressly to the C6 cells; also called neuropilin-1; receptor NRP1 on C6 cells
As to B1, the binding result in data set [2] is reported as “binds”.
